T1: recombinant mouse MFAP4 (mouse, UniProt Q9D1H9 23-257)
T1 construct: mature; The expression plasmid is pcDNA5/FRT/V5-His TOPO TA; also called murine MFAP4; mouse serum MFAP4
T1 sequence (looked up): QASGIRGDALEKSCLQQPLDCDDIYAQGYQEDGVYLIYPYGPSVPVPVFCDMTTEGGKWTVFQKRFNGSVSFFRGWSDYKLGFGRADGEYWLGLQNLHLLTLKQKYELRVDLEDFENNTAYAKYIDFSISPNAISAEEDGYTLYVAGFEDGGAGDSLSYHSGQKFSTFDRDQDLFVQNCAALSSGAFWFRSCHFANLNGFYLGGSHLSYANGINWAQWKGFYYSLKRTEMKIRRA

T2: recombinant human MFAP4 (human, UniProt P55083 22-255)
T2 construct: mature; also called rhMFAP4; hrMFAP4
T2 sequence (looked up): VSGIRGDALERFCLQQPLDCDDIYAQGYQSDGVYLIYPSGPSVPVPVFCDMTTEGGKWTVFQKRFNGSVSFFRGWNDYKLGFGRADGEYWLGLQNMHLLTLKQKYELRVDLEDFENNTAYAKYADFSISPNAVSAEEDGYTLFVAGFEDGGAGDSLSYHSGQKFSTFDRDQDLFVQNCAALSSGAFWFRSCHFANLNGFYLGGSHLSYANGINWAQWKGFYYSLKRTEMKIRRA

T3: recombinant human MFAP4 with RGD integrin binding motif mutated to AAA (human, UniProt P55083 22-255)
T3 construct: mature; also called human MFAP4 RGD-AAA mutation
T3 sequence (looked up): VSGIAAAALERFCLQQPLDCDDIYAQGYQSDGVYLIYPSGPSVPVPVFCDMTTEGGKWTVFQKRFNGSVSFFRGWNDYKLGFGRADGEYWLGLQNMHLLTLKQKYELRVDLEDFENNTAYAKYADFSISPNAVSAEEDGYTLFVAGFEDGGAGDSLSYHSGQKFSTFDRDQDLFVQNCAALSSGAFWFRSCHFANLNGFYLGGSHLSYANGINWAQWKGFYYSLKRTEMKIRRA


Legend:
recombinant mouse MFAP4 = target: T1, recombinant mouse MFAP4; assay: direct ELISA, biotinylated antibody on coated recombinant mouse MFAP4, streptavidin-HRP
Procedure: (§1) 96-well plates (Nunc-MaxiSorp) (Nunc™) were coated with 0.5 μg recombinant mouse MFAP4, recombinant human MFAP4 and recombinant human MFAP4 with the RGD-sequence mutated to AAA in PBS O.N at 4° C. Coating was followed by washing and then blocking in TBS/Tw O.N at 4° C. Blocking was followed by addition of biotinylated antibodies diluted 2-fold from an initial concentration of 100 ng/ml. The plates were then incubated for 2 hours at R.T. The plates were washed three times in TBS/Tw and incubated for 20 minutes with Strepavidin Horseradish Peroxidase (HRP) conjugate (Invitrogen) diluted 1:2000 in TBS/Tw. After final three washes, the amount of bound enzyme was estimated by adding OPD (0.8 mg/ml, Kementec, Taastrup, Denmark) dissolved in substrate buffer (0.03% freshly prepared H₂O₂) and allowed to react for 15 minutes in the dark at RT. Colour development was stopped by the addition of 100 μl 1 M H₂SO₄, and the plates were read at OD₄₉₂ nm with OD₆₀₀ nm as reference.

recombinant human MFAP4 [1] = target: T2, recombinant human MFAP4; assay: competition ELISA on immobilized recombinant human MFAP4; competitor: biotinylated hAS0326 at 0.5 µg/ml
Procedure: (§2) Biotinylated A) HG HYB 7-5 (biotinHYB7-5), B) hAS0326 ([…]) and C) mAS0326 (bmAS0326) at a fixed concentration of 0.5 μg/ml were mixed with unlabelled IgG isotype control, HG HYB 7-18 (HYB7-18), HG HYB 7-5 (HYB7-5), hAS0326 and mAS0326 in a 2-fold dilution from 20 μg/ml. […] Only HG Hyb 7-5 was capable of inhibiting the HG HYB 7-5 interaction with target. In contrast, mAS0326 was capable of inhibiting hAS0326 binding to target and vice versa.
(§3) 96-well plates (Nunc-MaxiSorp) were coated with 0.5 μg recombinant human MFAP4 in PBS O.N at 4° C. followed by washing and then blocking in TBS/Tw O.N at 4° C. Biotinylated Mab (0.5 μg/ml) and unlabeled MAbs (diluted 2-fold from 20 μg/ml to 156 ng/ml) were premixed in a separate microtiterplate in TBS/Tw and then added to the MFAP4 coated microtiter plate. The plates were following incubated for 2 hours at R.T. The plates were washed three times in TBS/Tw and incubated for 20 min with Strepavidin Horseradish Peroxidase (HRP) conjugate (Invitrogen) diluted 1:2000 in TBS/Tw. […] Colour development was stopped by the addition of 100 μl 1 M H₂SO₄, and the plates were read at OD₄₉₂ nm with OD₆₀₀ nm as reference.

recombinant human MFAP4 [2] = target: T2, recombinant human MFAP4; assay: competition ELISA on immobilized recombinant human MFAP4; competitor: biotinylated mAS0326 at 0.5 µg/ml
Procedure: as §2, §3

recombinant human MFAP4 [3] = target: T2, recombinant human MFAP4; assay: SPR, Biacore T200
[4] = target: T3, recombinant human MFAP4 with RGD …; assay: direct ELISA, biotinylated antibody on coated recombinant human MFAP4 with RGD mutated to AAA, streptavidin-HRP
Procedure: as §1

recombinant human MFAP4 [5] = target: T2, recombinant human MFAP4; assay: competition ELISA on immobilized recombinant human MFAP4; competitor: biotinylated HG HYB 7-5 at 0.5 µg/ml
Procedure: as §2, §3

binding result (recombinant mouse MFAP4)	IC50 (read off the curve) (recombinant human MFAP4 [1]) [mg/L]	IC50 (read off the curve) (recombinant human MFAP4 [2]) [mg/L]	Kd (recombinant human MFAP4 [3]) [nM]	binding result [4]	IC50 (read off the curve) (recombinant human MFAP4 [5]) [mg/L]	Binder
binds	~0.9	~0.9	0.14			mAS0326 (antibody, V domains shown, Murine hybridoma monoclonal antibody raised against human recombinant MFAP4; also called biotinmAS0326; bmAS0326) VH: QVQLQQPGADLVKPGTSVKLSCKASGFTFTSYWMHWVKQRPGQGLEWIGVIHPNSGNTKYNEKFRSEATLTVDKSSNTAYIQLSSLTSEDSAVYYCAREMWNYGNSWYFDVWGTGTTVTVSS VL: DVQIIQSPSYLAASPGETITINCRASKSISKYLAWYQERPGKTNKLLIYSGSTLQSGIPSRFSGSGSGTDFTLTISSLEPEDFAMYYCQQHNEYPFTFGAGTKLELK
			0.504			Chimeric antibody (mAS0326 with human Fc, CHO expression) (antibody, V domains shown) VH: QVQLQQPGADLVKPGTSVKLSCKASGFTFTSYWMHWVKQRPGQGLEWIGVIHPNSGNTKYNEKFRSEATLTVDKSSNTAYIQLSSLTSEDSAVYYCAREMWNYGNSWYFDVWGTGTTVTVSS VL: DVQIIQSPSYLAASPGETITINCRASKSISKYLAWYQERPGKTNKLLIYSGSTLQSGIPSRFSGSGSGTDFTLTISSLEPEDFAMYYCQQHNEYPFTFGAGTKLELK
no binding (tested: 100 ng/ml)				no binding (tested: 100 ng/ml)	~0.8	HG HYB 7-5 (antibody, V domains shown, also called biotinHYB7-5) VH: EVQLQQSGPELVKPGASVKLSCKTSGYTFTSYDMNWVKQRPGQGLEWIGWIFPRDGSTKFNEKFKGKATLTVDTSSTTAYMELHSLTSEDSAVYFCARAEIFFDYGFDYWGQGTTLTVSS VL: DIVMTQSTALMAASPGEKVTITCSVSSSISSSNLHWYQQKSETSPKSWIYGTSNLASGVPGRFSGSGSGTSYSLTISSVEAEDAATYYCQQWSSYPLTFGGGTKLEIK

Source: patent publication US20230047179A1 (SYDDANSK UNIVERSITET, published 2023)
